{"source": "patent US20060269997A1", "about": "(Genentech, published 2006)", "binders": {"B1": {"name": "Flt-sel (I43A/I46A/Q79A/I83A, VEGF 1-109 form) (ligand, human, UniProt P15692-4 27-135, looked up)", "chain": "APMAEGGGQNHHEVVKFMDVYQRSYCHPIETLVDIFQEYPDEAEYAFKPSCVPLMRCGGCCNDEGLECVPTEESNITMAIMRAKPHQGQHIGEMSFLQHNKCECRPKKD", "notes": "also called Flt-1-sel; Flt-1 selective variant"}, "B2": {"name": "LK-VRB-7s* (ligand, human, UniProt P15692-4 27-135, looked up)", "chain": "APMAEGGGQNHHEVVKFEDVYQRSYCHPIETLVDIFQEYPDEIEYIFKPSCVPLMRCGGCCNSEMRECVPTEESNITMQIMRIKPHQGQHIGEMSFLQHNKCECRPKKD"}, "B3": {"name": "LK-VRB-1s* (ligand, human, UniProt P15692-4 27-135, looked up)", "chain": "APMAEGGGQNHHEVVKFEDVLRRSSCHPIETLVDIFQEYPDEIEYIFKPSCVPLMRCGGCCNDEGLECVPTEESNITMQIMRIKPHQGQHIGEMSFLQHNKCECRPKKD"}, "B4": {"name": "LK-VRB-2s* (ligand, human, UniProt P15692-4 27-135, looked up)", "chain": "APMAEGGGQNHHEVVKFMDVYQRSYCHPIETLVDIFQEYPDEIEYIFKPSCVPLMRCGGCCNSEMRECVPTEESNITMQIMRIKPHQGQHIGEMSFLQHNKCECRPKKD", "notes": "also called KDR selective variant"}, "B5": {"name": "LK-VRB-8s* (ligand)", "chain": "APMAEGGGQNHHEVVKFMDVLQRSYCHPIETLVDIFQEYPDEIEYIFKPSCVPLMRCGGCCNSEMRECVPTEESNITMQIMRIKPHQGQHIGEMSFLQHNKCECRPKKD"}, "B6": {"name": "native VEGF (8-109) (ligand, human, UniProt P15692 214-315, looked up)", "chain": "GQNHHEVVKFMDVYQRSYCHPIETLVDIFQEYPDEIEYIFKPSCVPLMRCGGCCNDEGLECVPTEESNITMQIMRIKPHQGQHIGEMSFLQHNKCECRPKKD", "modifications": "biotinylated where used as tracer"}, "B7": {"name": "LK-VRB-2f (ligand, human, UniProt P15692-4 27-191, looked up)", "chain": "APMAEGGGQNHHEVVKFMDVYQRSYCHPIETLVDIFQEYPDEIEYIFKPSCVPLMRCGGCCNSEMRECVPTEESNITMQIMRIKPHQGQHIGEMSFLQHNKCECRPKKDRARQENPCGPCSERRKHLFVQDPQTCKCSCKNTDSRCKARQLELNERTCRCDKPRR", "notes": "also called KDR-selective VEGF variant; KDR-sel"}, "B8": {"name": "WT VEGF (ligand, human, UniProt P15692-4 27-191, looked up)", "VEGF monomer": "APMAEGGGQNHHEVVKFMDVYQRSYCHPIETLVDIFQEYPDEIEYIFKPSCVPLMRCGGCCNDEGLECVPTEESNITMQIMRIKPHQGQHIGEMSFLQHNKCECRPKKDRARQENPCGPCSERRKHLFVQDPQTCKCSCKNTDSRCKARQLELNERTCRCDKPRR"}}, "key": {"[1]": {"target": "T1, Flt-1 on Flt-1-transfected NIH3T3 cells (UniProt P17948 27-1338, limits assumed)", "T1 construct": "whole, on cells; also called FLT-1 expressing NIH3T3 cells; Flt-1-transfected cells", "T1 sequence (P17948 27-1338 limits assumed)": "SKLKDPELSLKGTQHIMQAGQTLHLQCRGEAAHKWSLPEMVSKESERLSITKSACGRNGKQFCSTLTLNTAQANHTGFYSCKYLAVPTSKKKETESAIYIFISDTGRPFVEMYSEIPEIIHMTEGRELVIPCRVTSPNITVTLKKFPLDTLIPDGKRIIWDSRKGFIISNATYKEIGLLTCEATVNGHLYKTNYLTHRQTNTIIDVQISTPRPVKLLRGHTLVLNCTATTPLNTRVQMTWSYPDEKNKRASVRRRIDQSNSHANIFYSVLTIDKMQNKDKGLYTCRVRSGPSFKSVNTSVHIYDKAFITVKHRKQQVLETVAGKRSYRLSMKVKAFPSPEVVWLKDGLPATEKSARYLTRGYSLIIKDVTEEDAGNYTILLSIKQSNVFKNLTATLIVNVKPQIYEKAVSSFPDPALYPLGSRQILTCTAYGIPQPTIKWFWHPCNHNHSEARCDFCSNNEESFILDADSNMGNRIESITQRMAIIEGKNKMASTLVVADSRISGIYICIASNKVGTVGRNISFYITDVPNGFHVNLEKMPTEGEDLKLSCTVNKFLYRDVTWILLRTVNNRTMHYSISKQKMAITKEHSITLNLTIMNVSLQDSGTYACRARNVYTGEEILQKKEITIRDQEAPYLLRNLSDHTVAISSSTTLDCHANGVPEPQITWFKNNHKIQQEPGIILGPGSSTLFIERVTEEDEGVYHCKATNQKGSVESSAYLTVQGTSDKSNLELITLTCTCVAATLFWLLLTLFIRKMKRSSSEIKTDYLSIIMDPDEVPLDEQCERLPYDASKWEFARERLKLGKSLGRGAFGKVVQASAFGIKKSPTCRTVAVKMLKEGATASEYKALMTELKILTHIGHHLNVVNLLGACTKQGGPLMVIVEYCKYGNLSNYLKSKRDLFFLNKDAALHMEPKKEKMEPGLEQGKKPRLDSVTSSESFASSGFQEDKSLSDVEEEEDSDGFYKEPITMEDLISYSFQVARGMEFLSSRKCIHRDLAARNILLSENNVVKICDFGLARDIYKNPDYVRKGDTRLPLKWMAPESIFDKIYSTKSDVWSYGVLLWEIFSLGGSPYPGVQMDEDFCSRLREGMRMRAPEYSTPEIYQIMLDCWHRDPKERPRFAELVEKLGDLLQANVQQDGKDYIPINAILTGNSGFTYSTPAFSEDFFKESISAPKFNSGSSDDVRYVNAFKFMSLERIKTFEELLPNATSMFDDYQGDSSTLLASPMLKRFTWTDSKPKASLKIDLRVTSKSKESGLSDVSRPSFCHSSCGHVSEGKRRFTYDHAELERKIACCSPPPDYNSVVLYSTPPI", "experiment": "competitive displacement of 125I-VEGF (legend: 1-165; Example 7: 1-109) from Flt-1-transfected NIH3T3 cells", "description": "(§1) KDR or Flt-1 transfected NIH3T3 cells were prepared as described by Fuh et al., J. Biol. Chem., 273:11187-11204 (1998). The transfected cells were maintained in F12 media supplemented with 10% FBS and 400 ug/ml G418 (GibcoBRL). For the binding assays, the cells were plated in 12-wells plates at 1×10⁶/well to reach confluency next day. […] The plates were incubated at 4° C. for three hours and then washed two times with HBS with […]."}, "[2]": {"target": "KDR receptor (soluble RIA of Examples 6 and 8) (UniProt P35968)", "sequence (P35968 20-764 limits assumed)": "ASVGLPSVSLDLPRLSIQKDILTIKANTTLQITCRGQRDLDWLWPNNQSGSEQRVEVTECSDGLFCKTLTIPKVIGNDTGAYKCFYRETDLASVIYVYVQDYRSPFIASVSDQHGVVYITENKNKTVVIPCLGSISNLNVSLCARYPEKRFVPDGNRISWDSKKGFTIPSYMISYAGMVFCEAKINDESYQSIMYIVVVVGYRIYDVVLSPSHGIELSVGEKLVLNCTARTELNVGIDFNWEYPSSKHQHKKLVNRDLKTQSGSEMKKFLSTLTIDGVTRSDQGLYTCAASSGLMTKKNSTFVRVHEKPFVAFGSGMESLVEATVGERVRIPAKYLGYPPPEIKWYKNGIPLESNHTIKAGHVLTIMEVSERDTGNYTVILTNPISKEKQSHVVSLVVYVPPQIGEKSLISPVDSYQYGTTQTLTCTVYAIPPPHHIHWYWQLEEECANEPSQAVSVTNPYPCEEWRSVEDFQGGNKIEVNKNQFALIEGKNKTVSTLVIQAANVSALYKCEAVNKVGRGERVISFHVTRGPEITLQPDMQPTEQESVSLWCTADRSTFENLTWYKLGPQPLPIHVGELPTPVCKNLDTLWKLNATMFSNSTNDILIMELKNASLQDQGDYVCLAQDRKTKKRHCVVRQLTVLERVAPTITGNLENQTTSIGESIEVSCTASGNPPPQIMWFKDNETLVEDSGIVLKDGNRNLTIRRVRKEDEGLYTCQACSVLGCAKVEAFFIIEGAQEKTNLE", "experiment": "soluble radio-immuno receptor-binding assay (RIA)"}, "[3]": {"target": "T2, KDR on KDR-transfected NIH3T3 cells (UniProt P35968 20-1356, limits assumed)", "T2 construct": "whole, on cells; also called KDR expressing NIH3T3 cells; KDR-transfected 3T3 cells", "T2 sequence (P35968 20-1356 limits assumed)": "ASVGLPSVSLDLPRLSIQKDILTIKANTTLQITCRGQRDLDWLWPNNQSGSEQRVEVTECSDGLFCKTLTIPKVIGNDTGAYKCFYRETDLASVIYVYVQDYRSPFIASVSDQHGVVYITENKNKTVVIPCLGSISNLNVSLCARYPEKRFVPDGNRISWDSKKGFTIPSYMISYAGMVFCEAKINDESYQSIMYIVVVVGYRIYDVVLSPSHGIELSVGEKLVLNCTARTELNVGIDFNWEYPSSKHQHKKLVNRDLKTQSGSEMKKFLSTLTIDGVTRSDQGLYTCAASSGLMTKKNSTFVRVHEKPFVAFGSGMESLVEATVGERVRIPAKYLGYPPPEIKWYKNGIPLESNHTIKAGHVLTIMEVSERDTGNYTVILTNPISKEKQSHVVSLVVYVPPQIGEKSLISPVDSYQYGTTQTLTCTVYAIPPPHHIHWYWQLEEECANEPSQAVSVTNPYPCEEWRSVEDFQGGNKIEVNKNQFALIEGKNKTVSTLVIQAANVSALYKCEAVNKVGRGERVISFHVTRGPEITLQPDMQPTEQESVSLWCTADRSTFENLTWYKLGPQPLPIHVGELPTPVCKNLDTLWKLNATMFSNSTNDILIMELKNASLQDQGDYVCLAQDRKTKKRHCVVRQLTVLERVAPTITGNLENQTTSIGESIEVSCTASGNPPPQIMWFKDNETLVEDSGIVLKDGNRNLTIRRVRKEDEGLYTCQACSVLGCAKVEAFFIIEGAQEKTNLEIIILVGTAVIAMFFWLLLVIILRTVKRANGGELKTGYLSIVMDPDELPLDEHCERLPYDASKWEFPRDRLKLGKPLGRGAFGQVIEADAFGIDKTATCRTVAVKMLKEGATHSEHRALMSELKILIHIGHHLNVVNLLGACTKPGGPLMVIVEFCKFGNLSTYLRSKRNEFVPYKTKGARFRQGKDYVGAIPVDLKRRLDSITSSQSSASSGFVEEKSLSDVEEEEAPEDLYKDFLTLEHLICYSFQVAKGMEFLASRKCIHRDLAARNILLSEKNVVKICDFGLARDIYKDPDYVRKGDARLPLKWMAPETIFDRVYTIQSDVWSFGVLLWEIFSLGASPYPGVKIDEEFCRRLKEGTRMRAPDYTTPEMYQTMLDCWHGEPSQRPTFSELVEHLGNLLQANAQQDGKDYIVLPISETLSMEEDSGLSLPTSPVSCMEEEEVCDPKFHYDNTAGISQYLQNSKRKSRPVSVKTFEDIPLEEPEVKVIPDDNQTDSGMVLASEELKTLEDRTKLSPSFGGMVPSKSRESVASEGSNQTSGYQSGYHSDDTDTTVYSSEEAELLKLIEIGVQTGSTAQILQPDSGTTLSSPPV", "experiment": "competitive displacement of 125I-VEGF (legend: 1-165; Example 7: 1-109) from KDR-transfected NIH3T3 cells", "description": "as §1"}, "KDR (1-3) monomer [4]": {"target": "T3, KDR (1-3) monomer (UniProt P35968 20-327, limits assumed, biotin-labeled in the ELISA of Example 8)", "T3 construct": "domain: domains 1 to 3; Genentech reagent; also called domains 1 to 3 of KDR", "T3 sequence (P35968 20-327 limits assumed)": "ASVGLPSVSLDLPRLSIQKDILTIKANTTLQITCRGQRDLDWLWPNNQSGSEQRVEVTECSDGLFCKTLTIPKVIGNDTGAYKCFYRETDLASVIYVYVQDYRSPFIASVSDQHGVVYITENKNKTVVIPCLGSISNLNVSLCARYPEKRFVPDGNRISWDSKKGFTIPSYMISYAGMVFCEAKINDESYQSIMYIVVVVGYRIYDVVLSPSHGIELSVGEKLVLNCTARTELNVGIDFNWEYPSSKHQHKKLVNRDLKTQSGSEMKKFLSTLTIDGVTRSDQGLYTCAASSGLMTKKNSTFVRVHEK", "experiment": "competition ELISA vs biotinylated VEGF (8-109), soluble KDR (1-3) captured by MAKD5", "description": "(§2) Receptor binding assays were performed in 96-well immunoplates (Maxisorp, Nunc-Immunoplate, Nalge Nunc International, Rochester, N.Y.). Each well was coated with 100 μl of a solution containing 8 μg/ml of a monoclonal antibody to KDR known as MAKD5 (Genentech, South San Francisco, Calif.) in 50 mM carbonate buffer at pH 9.6 and incubated at 4° C. overnight. The supernatant was discarded, the wells were washed three times in washing buffer (0.05% Tween 20 in PBS), and the plate was blocked (150 μl per well) with block buffer (0.5% BSA, 0.01% thimerosal in PBS) at room temperature for one hour. The supernatant was discarded, and the wells were washed.\n(§3) Aliquots of this mixture (100 μl) were added to the precoated microtiter wells and the plate was incubated for 1 hour at room temperature. […] The wells were then incubated with 3,3′, 5,5′-tetramethyl benzidine (0.2 gram/liter; Kirkegaard & Perry Laboratories, Gaithersburg, Md.) for about 10 minutes at room temperature. Absorbance was read at 450 nm on a Vmax plate reader (Molecular Devices, Menlo Park, Calif.).\n(§4) Titration curves were fit with a four-parameter nonlinear regression curve-fitting program (KaleidaGraph, Synergy Software, Reading, Pa.)."}, "[5]": {"target": "KDR on human umbilical vein endothelial cells (HUVEC) (human, UniProt P35968 20-1356)", "sequence (P35968 20-1356)": "as the sequence (P35968 20-1356 limits assumed) above", "experiment": "cell-based or functional assay"}, "[6]": {"target": "KDR receptor (soluble RIA of Examples 6 and 8) (UniProt P35968 20-764, limits assumed)", "sequence (P35968 20-764 limits assumed)": "as the sequence (P35968 20-764 limits assumed) above", "experiment": "radio-immuno receptor-binding assay (RIA)"}, "[7]": {"target": "FLT-1 receptor (soluble RIA of Examples 6 and 8) (UniProt P17948 27-758, limits assumed)", "sequence (P17948 27-758 limits assumed)": "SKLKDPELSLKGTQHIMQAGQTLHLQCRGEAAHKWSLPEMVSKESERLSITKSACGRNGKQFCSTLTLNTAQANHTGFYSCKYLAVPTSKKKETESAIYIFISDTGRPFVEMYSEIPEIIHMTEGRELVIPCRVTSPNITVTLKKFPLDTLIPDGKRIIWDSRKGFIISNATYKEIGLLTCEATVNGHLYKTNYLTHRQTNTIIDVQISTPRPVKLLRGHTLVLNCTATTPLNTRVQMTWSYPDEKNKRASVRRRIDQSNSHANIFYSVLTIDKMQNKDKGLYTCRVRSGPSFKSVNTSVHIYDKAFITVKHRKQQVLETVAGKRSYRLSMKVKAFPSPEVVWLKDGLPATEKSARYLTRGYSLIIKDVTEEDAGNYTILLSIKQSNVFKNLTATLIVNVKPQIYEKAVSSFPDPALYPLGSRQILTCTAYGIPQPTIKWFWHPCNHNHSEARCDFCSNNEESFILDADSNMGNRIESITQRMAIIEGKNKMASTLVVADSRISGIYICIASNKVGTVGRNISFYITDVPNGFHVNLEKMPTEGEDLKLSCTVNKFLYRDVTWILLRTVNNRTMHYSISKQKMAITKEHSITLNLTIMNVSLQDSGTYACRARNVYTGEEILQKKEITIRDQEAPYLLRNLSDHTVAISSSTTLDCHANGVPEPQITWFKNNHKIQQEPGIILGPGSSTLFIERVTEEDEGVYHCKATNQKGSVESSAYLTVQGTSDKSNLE", "experiment": "radio-immuno receptor-binding assay (RIA)"}, "[8]": {"target": "gD-KDR receptor on CHO cells (UniProt P35968 20-1356)", "experiment": "cell-based or functional assay"}, "[9]": {"target": "T4, Flt-IgG (a chimeric Flt-human Fc molecule) (UniProt P17948 27-758, limits assumed)", "T4 construct": "Only described as a chimeric Flt-human Fc molecule; not shown: human Fc", "T4 sequence (P17948 27-758 limits assumed, change not shown)": "as the sequence (P17948 27-758 limits assumed) above", "experiment": "competition ELISA vs biotinylated native VEGF, Flt-IgG captured by anti-Fc", "description": "Receptor binding assays were performed in 96-well immunoplates (Maxisorp, Nunc-Immunoplate, Nalge Nunc International, Rochester, N.Y.). Each well was coated with 100 μl of a solution containing 2 μg/ml of rabbit F(ab′)2 to human IgG Fc (Jackson ImmunoResearch, West Grove, Pa.) in 50 mM carbonate buffer at pH 9.6 and incubated at 4° C. overnight. The supernatant was then discarded, the wells were washed three times in washing buffer (0.05% Tween 20 in PBS), and the plate was blocked (150 μl per well) with block buffer (0.5% BSA, 0.01% thimerosal in PBS) at room temperature for one hour. The supernatant was discarded, and the wells were washed.\nThe wells were filled with 100 μl of a solution containing Flt-IgG (a chimeric Flt-human Fc molecule) at 50 ng/ml in assay buffer (0.5% BSA, 0.05% Tween 20 in PBS). The wells were incubated at room temperature for 1 hour and then washed three times in wash buffer (0.05% Tween 20 in PBS).\nAliquots of the mixture (100 μl) were added to the precoated microtiter wells and the plate was incubated for 2 hours at room temperature. […] The wells were then incubated with 3,3′, 5,5′-tetramethyl benzidine (0.2 g/liter, Kirkegaard & Perry Laboratories, Gaithersburg, Md.) for about 10 minutes at room temperature. Absorbance was read at 450 nm on a Vmax plate reader (Molecular Devices, Menlo Park, Calif.)."}, "KDR (1-3) monomer [10]": {"target": "T3, KDR (1-3) monomer", "experiment": "competition ELISA: inhibits binding of biotinylated native VEGF (8-109) to KDR (1-3) captured by antibody MAKD5 (Example 2)", "description": "as §2, §3, §4"}}}
{"binder": "B1", "values": [{"measurement": "binding result", "setting": "[1]", "value": "binds"}, {"measurement": "fold reduced KDR-binding affinity (against native VEGF)", "setting": "[2]", "value": "> 470", "unit": "fold"}, {"measurement": "binding result", "setting": "[3]", "value": "no binding (tested: log -6.7 M (about 2e-7 M))"}]}
{"binder": "B2", "values": [{"measurement": "IC50", "setting": "KDR (1-3) monomer [4]", "value": 1, "unit": "nM"}, {"measurement": "Relative Binding Affinity (ratio to native VEGF (8-109))", "setting": "KDR (1-3) monomer [4]", "value": 1, "unit": "fold"}, {"measurement": "Endothelial Cell Proliferation Activity (HUVEC), ratio to native VEGF (8-109)", "setting": "[5]", "value": 1, "unit": "fold"}, {"measurement": "Endothelial Cell Proliferation Activity (HUVEC, 3H-thymidine), concentration", "setting": "[5]", "value": 0.5, "unit": "nM"}]}
{"binder": "B3", "values": [{"measurement": "IC50", "setting": "KDR (1-3) monomer [4]", "value": 1, "unit": "nM"}, {"measurement": "Relative Binding Affinity (ratio to native VEGF (8-109))", "setting": "KDR (1-3) monomer [4]", "value": 1, "unit": "fold"}, {"measurement": "Endothelial Cell Proliferation Activity (HUVEC), ratio to native VEGF (8-109)", "setting": "[5]", "value": 0.2, "unit": "fold"}, {"measurement": "Endothelial Cell Proliferation Activity (HUVEC, 3H-thymidine), concentration", "setting": "[5]", "value": 0.1, "unit": "nM"}, {"measurement": "Relative Binding Affinity (ratio to native VEGF 165)", "setting": "[6]", "value": 20, "unit": "fold"}, {"measurement": "Relative Binding Affinity (ratio to native VEGF 165)", "setting": "[7]", "value": 14000, "unit": "fold"}, {"measurement": "Phosphorylation-Inducing Activity (KIRA), midpoint concentration", "setting": "[8]", "value": 1, "unit": "nM"}, {"measurement": "Phosphorylation-Inducing Activity (KIRA), ratio to native VEGF (8-109)", "setting": "[8]", "value": 0.5, "unit": "fold"}, {"measurement": "IC50", "setting": "[9]", "value": 2700, "unit": "nM"}, {"measurement": "Relative Binding Affinity (ratio to native VEGF (8-109))", "setting": "[9]", "value": 6000, "unit": "fold"}]}
{"binder": "B4", "values": [{"measurement": "IC50 (read off the curve)", "setting": "[1]", "value": "~10", "unit": "nM"}, {"measurement": "Endothelial Cell Proliferation Activity (HUVEC, 3H-thymidine), concentration", "setting": "[5]", "value": 0.05, "unit": "nM"}, {"measurement": "Phosphorylation-Inducing Activity (KIRA), midpoint concentration", "setting": "[8]", "value": 2, "unit": "nM"}, {"measurement": "IC50 (read off the curve)", "setting": "[3]", "value": "~0.8", "unit": "nM"}]}
{"binder": "B5", "values": [{"measurement": "IC50", "setting": "KDR (1-3) monomer [4]", "value": 0.5, "unit": "nM"}, {"measurement": "Relative Binding Affinity (ratio to native VEGF (8-109))", "setting": "KDR (1-3) monomer [4]", "value": 0.5, "unit": "fold"}, {"measurement": "Endothelial Cell Proliferation Activity (HUVEC), ratio to native VEGF (8-109)", "setting": "[5]", "value": 1, "unit": "fold"}, {"measurement": "Endothelial Cell Proliferation Activity (HUVEC, 3H-thymidine), concentration", "setting": "[5]", "value": 0.5, "unit": "nM"}]}
{"binder": "B6", "values": [{"measurement": "Endothelial Cell Proliferation Activity (HUVEC, 3H-thymidine), concentration", "setting": "[5]", "value": 0.5, "unit": "nM"}, {"measurement": "IC50 (read off the curve)", "setting": "KDR (1-3) monomer [10]", "value": "~2", "unit": "nM"}, {"measurement": "Phosphorylation-Inducing Activity (KIRA), midpoint concentration", "setting": "[8]", "value": 2, "unit": "nM"}, {"measurement": "IC50", "setting": "[9]", "value": 0.42, "unit": "nM"}]}
{"binder": "B7", "values": [{"measurement": "Endothelial Cell Proliferation Activity (HUVEC, 3H-thymidine), concentration", "setting": "[5]", "value": 0.05, "unit": "nM"}, {"measurement": "IC50", "setting": "[9]", "value": 19, "unit": "nM"}]}
{"binder": "B8", "values": [{"measurement": "IC50 (read off the curve)", "setting": "[1]", "value": "~0.04", "unit": "nM"}]}
